Assay results from paper PMC4283134, “Nup98 FG domains from diverse species spontaneously phase-separate into particles with nuclear pore-like permselectivity” (eLife, 2015).

Target: T1, Saccharomyces cerevisiae Importin β (Kap95p) (S. cerevisiae, UniProt Q06142 1-861)
T1 sequence (looked up): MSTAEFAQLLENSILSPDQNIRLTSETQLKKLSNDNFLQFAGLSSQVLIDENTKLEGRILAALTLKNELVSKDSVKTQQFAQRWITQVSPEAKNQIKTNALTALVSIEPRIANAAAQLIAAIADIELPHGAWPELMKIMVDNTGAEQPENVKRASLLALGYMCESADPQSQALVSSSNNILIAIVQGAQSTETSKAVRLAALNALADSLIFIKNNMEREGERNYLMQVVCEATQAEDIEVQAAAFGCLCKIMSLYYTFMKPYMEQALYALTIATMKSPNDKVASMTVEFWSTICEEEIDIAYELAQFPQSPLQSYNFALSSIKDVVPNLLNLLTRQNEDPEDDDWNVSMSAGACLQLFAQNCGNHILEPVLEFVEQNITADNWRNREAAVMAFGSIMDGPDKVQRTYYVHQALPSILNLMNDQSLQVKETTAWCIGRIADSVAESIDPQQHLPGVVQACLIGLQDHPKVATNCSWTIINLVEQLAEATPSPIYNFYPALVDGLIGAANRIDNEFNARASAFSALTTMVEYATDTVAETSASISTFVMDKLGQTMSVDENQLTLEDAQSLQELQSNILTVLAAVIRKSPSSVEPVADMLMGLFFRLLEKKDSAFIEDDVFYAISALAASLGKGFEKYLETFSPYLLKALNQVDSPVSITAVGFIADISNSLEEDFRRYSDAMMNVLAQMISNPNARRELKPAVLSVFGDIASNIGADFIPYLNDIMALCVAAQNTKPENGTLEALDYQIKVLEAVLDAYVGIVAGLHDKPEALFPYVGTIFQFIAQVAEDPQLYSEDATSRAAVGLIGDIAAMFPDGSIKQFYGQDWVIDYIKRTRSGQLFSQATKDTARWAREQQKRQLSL
Assay: NTR⋅cargo complex formed from purified proteins, followed by the fluorescent cargo's entry into FG particles (confocal microscopy); 1 µM complex (referring to substrate monomers) added to FG particles; no separate test of complex formation is described
Conditions: both partners purified

B1: Atto488-labelled IBB domain of S. cerevisiae Srp1p (domain or fragment)
chain: DNGTDSSTSKFVPEYRRTNFKNKGRFSADELRRRRDTQQVELRKAKRDEALAKRRNFIPPTDC
modifications: also: Atto488 label, position not given here
notes: IBB domain of Srp1p (importin α), S. cerevisiae, residues 2-63; C-terminal cysteine of the construct; The label probably sits on the C-terminal cysteine; also called ScIBB; IBB-Atto488; source: E. coli (BLR or NEB Express), purified (native Ni(II) chelate chromatography, tag removed); not shown: His14, N-terminal, cleaved; ZZ, N-terminal, cleaved; brNEDD8, N-terminal, cleaved
**Q.** Does B1 bind?
**A.** binds
